According to patent US20140193915, “COMPOSITIONS AND METHODS FOR CUSTOM SITE-SPECIFIC DNA RECOMBINASES” (Monsanto Technology, LLC, published 2014):

T1: sN-TALER IV-12 (synthetic)
T1 chain: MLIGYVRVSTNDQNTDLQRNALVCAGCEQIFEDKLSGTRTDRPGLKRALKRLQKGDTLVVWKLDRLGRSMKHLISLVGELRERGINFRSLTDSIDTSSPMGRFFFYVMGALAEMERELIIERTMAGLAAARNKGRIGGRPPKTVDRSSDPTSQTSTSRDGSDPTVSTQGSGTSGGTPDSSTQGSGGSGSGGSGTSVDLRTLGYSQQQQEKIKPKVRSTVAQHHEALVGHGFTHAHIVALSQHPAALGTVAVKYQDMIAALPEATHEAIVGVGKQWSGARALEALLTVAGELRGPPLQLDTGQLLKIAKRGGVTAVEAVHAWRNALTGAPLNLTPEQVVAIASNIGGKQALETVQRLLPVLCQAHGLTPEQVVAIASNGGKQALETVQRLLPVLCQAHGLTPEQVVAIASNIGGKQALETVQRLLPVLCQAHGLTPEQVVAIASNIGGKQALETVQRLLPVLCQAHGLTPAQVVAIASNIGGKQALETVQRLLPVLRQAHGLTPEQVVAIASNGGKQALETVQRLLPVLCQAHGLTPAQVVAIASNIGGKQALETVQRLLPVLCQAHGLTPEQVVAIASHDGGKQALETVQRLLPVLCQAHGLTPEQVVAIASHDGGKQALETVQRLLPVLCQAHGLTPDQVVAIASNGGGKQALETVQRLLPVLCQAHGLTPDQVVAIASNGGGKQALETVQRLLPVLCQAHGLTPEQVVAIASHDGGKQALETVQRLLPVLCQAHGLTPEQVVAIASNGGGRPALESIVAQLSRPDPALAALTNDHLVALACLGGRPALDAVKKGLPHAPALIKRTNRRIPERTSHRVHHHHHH

T2: pN-TALER IV-12 (synthetic)
T2 chain: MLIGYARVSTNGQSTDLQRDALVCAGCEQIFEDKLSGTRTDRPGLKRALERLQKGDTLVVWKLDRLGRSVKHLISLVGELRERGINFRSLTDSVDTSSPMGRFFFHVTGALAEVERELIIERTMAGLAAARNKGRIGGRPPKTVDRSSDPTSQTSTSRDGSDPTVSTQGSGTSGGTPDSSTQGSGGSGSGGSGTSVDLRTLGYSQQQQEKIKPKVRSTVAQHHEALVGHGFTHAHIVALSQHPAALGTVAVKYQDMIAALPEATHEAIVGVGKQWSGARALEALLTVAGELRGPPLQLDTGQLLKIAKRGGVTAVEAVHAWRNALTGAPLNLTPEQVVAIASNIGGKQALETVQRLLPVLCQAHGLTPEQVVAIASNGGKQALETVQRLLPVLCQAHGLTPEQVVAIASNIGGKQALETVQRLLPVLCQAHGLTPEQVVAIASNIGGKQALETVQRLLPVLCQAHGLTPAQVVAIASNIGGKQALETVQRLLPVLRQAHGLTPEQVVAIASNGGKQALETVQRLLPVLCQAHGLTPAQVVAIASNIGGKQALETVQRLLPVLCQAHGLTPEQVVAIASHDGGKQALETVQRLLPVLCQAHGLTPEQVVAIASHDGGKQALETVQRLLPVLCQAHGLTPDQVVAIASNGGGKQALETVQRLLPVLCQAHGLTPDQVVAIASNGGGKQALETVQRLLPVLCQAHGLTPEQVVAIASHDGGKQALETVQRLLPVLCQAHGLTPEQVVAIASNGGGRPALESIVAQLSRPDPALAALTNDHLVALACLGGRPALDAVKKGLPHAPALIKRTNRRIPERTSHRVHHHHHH

T3: pN-TALER IV-1-EE2 (GinL7C7-EE2-TALE13) (synthetic)
T3 chain: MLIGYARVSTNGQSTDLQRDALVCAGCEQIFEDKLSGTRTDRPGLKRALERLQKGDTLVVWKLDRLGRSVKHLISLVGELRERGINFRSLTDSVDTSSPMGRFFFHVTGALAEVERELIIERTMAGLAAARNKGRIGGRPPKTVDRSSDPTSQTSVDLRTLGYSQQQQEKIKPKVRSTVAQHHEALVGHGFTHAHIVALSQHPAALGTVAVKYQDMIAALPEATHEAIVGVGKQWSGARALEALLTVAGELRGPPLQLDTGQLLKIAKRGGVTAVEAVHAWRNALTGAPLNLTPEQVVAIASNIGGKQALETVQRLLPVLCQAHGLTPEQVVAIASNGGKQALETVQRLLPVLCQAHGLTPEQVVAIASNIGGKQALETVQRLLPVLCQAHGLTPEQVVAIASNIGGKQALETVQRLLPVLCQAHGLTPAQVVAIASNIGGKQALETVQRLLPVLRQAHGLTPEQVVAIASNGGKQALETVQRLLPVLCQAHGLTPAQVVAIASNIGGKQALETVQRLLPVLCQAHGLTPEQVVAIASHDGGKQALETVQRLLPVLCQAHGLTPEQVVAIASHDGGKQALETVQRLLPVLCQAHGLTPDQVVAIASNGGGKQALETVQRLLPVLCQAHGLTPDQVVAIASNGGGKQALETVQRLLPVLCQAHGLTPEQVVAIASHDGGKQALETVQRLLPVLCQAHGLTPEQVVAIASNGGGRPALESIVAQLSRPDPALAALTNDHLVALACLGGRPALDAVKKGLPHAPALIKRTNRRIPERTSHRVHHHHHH

T4: pN-TALER N3.2 (synthetic)
T4 chain: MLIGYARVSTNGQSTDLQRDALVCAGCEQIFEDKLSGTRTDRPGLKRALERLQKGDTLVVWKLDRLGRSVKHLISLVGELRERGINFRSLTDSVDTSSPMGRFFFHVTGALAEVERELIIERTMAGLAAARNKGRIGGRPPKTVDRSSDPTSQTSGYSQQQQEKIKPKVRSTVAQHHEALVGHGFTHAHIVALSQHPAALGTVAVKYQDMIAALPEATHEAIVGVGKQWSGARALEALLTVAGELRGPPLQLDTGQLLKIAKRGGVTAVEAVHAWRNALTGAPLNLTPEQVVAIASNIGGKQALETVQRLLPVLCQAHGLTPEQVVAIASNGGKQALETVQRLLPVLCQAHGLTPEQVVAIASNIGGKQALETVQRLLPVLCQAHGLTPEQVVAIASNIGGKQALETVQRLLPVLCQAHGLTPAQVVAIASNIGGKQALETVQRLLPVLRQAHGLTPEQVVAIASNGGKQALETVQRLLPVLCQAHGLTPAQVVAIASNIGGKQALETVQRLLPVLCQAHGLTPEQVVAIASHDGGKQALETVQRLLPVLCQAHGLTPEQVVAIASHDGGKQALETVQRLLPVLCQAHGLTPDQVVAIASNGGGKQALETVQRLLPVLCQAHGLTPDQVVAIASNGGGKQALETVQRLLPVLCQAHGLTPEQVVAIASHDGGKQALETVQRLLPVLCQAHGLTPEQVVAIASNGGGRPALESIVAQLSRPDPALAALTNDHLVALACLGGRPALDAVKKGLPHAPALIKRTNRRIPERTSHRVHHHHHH


Tests used:
Test in all cases: cell_activity; E. coli
[1] = biological target: T1, sN-TALER IV-12
Method: (§1) To test for recombination, E. coli DH5alpha cells were co-transformed with different combinations of TALER expression construct and TALER reporter construct pairs (Tables 6 and 7). The N-TALER expression and reporter constructs were in an approximate 1:1 mass ratio during the transformation. The co-transformed bacteria were plated on media with chloramphenicol, kanamycin, and X-gal then incubated at 37° C. for 18 to 36 hours. Control samples consisted of transformations using the reporter construct alone. Control transformants were similarly plated. The bacterial transformation protocol was either heat shock or electroporation per standard molecular biology techniques.
(§2) The N-TALER expression constructs representing the N-TALER chimeras with varying linker lengths were co-transformed with N-TALER reporter constructs with TALER central sequence lengths of 18, 20, 24, 30, 40, and 50 bp (Table 13). […] Recombination did occur, but was less efficient with the pN-TALER IV-14 (linker length of 71 amino acids) with each of the N-TALER reporters tested.

[2] = biological target: T2, pN-TALER IV-12
Method: as §1, §2

[3] = biological target: T3, pN-TALER IV-1-EE2 (GinL7C7-EE2-TALE13); details: tags: 6-His
Method: as §1
Two additional N-TALERs, based on N-TALER IV-1, were constructed wherein the GinH106Y recombinase catalytic domain was replaced with either the GinL7C7-EE2 catalytic domain or the GinL7C7-EE3 permissive recombinase catalytic domain. These N-TALERs were labeled pN-TALER IV-1-EE2 (SEQ ID NO:41) and pN-TALER IV-1-EE3 (SEQ ID NO:45), respectively. pN-TALER IV-1-EE2 was tested in combination with seventeen N-TALER reporter constructs and pN-TALER IV-1-EE3 was tested with three reporter constructs (Table 10).

[4] = biological target: T4, pN-TALER N3.2
Method: The co-transformed bacteria were plated on media with chloramphenicol, kanamycin, and X-gal then incubated at 37° C. for 18 to 36 hours. Control samples consisted of transformations using the reporter construct alone. Control transformants were similarly plated. The bacterial transformation protocol was either heat shock or electroporation per standard molecular biology techniques.
For each of these N-TALER chimera expression constructs, from one to three independent clones were selected for plasmid purification. These N-TALER chimera expression constructs were co-transformed with five of the N-TALER reporter constructs, as indicated in Table 15. […] In contrast to the result for pN-TALER N4.2.2, the chimera sN-TALER N4.2.2, with the same truncation point but a specific recombinase catalytic domain, reporters with 20, 24, or 40 bp of TALER central sequence length were efficiently recombined (score of 1) while reporters with 30 or 50 bp of TALER central sequence length were not recombined (score of 5). For the chimera sN-TALER N4.2, reporters with 20, 24, or 40 bp of TALER central sequence length were efficiently recombined (score of 1); the reporter with 30 bp of TALER central sequence length was poorly recombined (score of 3); and the reporter with 50 bp of TALER central sequence length was not recombined (score of 5). For the chimera pN-TALER N4.2, the recombination efficiency on the reporters tested varied from intermediate (scores of 3 and 4) to none (score of 5). […] In contrast to the result for sN-TALER N3.2, the chimera pN-TALER N3.2, with the same truncation point but a permissive recombinase catalytic domain, recombination efficiency on the reporters tested varied from efficient (scores of 1.5, 2, and 3) to none (score of 5). For both chimeras sN-TALER V.2 and pN-TALER V.2, there was efficient recombination (scores of 1, 1.5, and 2) of the 5 N-TALER reporter constructs tested.

Row | Binder | activity [1] [score] | activity [2] [score] | activity [3] [score] | activity [4] [score]
1 | Gin20TALE+15 (dsDNA) DNA 1: AGAAGGTATTTATATAGGCACACATGTTATCCAAAACCATGGTTTACAGGACGTTCACACGGTATATAAATACCTTCT DNA 2: AGAAGGTATTTATATACCGTGTGAACGTCCTGTAAACCATGGTTTTGGATAACATGTGTGCCTATATAAATACCTTCT | 1 | 1 | – | –
2 | Gin20TALE+5 (dsDNA) DNA 1: AGAAGGTATTTATATATTATCCAAAACCATGGTTTACAGGACTATATAAATACCTTCT DNA 2: AGAAGGTATTTATATAGTCCTGTAAACCATGGTTTTGGATAATATATAAATACCTTCT | – | – | 1 | 1.5
